Residue numbers refer to the chain shown, from its start. Values joined by “and” are separate entries in the source; they are usually repeats but may differ in a detail not shown here. Equal values may be shown once.
What was measured:
Assay in all cases: SPR, kinetics, Fab over captured mutant
shCD131 Q339A = target: T1, shCD131 Q339A (human, UniProt P32927 17-438)
T1 construct: C-terminal 6xHis
T1 sequence: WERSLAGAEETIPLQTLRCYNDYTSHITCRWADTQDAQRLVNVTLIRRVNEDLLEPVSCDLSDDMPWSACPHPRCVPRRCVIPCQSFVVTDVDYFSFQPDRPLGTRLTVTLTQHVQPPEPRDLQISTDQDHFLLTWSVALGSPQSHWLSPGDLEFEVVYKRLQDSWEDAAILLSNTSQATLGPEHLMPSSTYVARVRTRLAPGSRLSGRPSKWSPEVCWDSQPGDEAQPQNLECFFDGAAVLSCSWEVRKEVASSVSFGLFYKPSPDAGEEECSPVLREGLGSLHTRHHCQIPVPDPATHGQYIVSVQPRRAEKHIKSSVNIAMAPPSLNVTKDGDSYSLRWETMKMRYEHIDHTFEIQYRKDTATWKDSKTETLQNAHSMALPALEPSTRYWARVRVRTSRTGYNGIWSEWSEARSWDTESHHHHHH
Description: (§1) As shβc is a dimer, kinetics assays were performed with shβc captured on the sensor surface, and purified Fab injected as the analyte. Avidity effects were avoided by the use of Fab rather than whole IgG.
(§2) shCD131 was captured on spots 1 and 5 of each flow cell for 2 minutes at a concentration of 0.4 μg/ml. […] For some analysis purified Fab was injected over each flow cell for 3 minutes and dissociation was monitored for a further 10 minutes. Regeneration of the surface was performed after each cycle with a 40 second injection of 25 mM glycine, pH 2.0. The analysis was performed with Fabs at several concentrations between 100 and 0.31 nM, with each concentration analyzed twice and in random order. The analysis was performed at a flow rate of 30 μl/min in HBS-EP buffer (10 mM Hepes, 150 mM NaCl, 3 mM EDTA, 0.005% Tween 20, pH 7.4) at 37° C. Responses from spots 2 and 4 of each flow cell, (in which shβc was not captured, but otherwise treated identically), were subtracted from those of spots 1 and 5 respectively to produce reference subtracted data. Reference subtracted responses from a blank injection comprising buffer alone were subtracted from the resultant sensorgrams to produce double referenced data suitable for kinetic analysis. Double-referenced sensorgrams were fitted using non-linear regression to a model describing 1:1 kinetics, including a term for mass transport limitation. The Rₘₐₓ value was fitted locally to account for slight deviations in the level of sCD131 captured, with association rate (kₐ), dissociation rate (kd) and equilibrium dissociation constant (KD) fitted globally.
(§3) Mapping of the shCD131 epitope was performed by measurement of the affinity of Fabs for various alanine point mutants of shCD131 essentially as described above, with the following exceptions. Each shCD131 mutant was captured for 120 seconds at concentrations between 1 and 5 μg/ml. For kinetic analysis, purified recombinant Fabs were injected for 2 minutes, and dissociation was monitored for a further 2 minutes. […] Fab concentrations ranged from 16 μM to 3.9 nM in two-fold dilutions.

shCD131 K362A = target: T2, shCD131 K362A (human, UniProt P32927 17-438)
T2 construct: C-terminal 6xHis
T2 sequence: T1 sequence with A323Q, K346A
Description: as §1, §2, §3

shCD131 R418A = target: T3, shCD131 R418A (human, UniProt P32927 17-438)
T3 construct: C-terminal 6xHis
T3 sequence: T1 sequence with A323Q, R402A
Description: as §1, §2, §3

shCD131 N422A = target: T4, shCD131 N422A (human, UniProt P32927 17-438)
T4 construct: C-terminal 6xHis
T4 sequence: T1 sequence with A323Q, N406A
Description: as §1, §2, §3

B1: 9A2 Fab (Fab, V domains shown)
VH: EVQLLESGGGLVQPGGSLRLSCAASGFTFSHYHMLWVRQAPGKGLEWVSSIRSSGGFTYYADSVKGRFTISRDNSKNTLYLQMNSLRAEDTAVYYCARFYDSFFDIWGQGTMVTVSS
VL: DIQMTQSPSSVSASVGDRVTITCRASQGISSWLAWYQQKPGKAPKLLIYAASSLQSGVPSRFSGSGSGTDFTLTISSLQPEDFATYYCQQANSFPITFGQGTRLEIKR
notes: also called recombinant Fab of 9A2
- Kd (shCD131 Q339A): 144 nM
- Kd (shCD131 K362A): 64.8 nM and 65 nM
- Kd (shCD131 R418A): 70 nM
- Kd (shCD131 N422A): 54 nM
